Data published in patent US20250101129A1 (AJINOMOTO, published 2025).

Target: T1, Fc protein of human IgG1 antibody (human, UniProt P01857-1 100-330 = IgG part, limits assumed)
T1 construct: domain: Fc; Immobilised on a CM5 chip by amine coupling at about 1400 RU; also called Fc region of an IgG1 antibody
Test: SPR Biacore T200, 25 C, Fc of human IgG1 amine-coupled on CM5, peptide as analyte, single cycle kinetics
Protocol: The affinity between each polypeptide and the Fc region of an IgG1 antibody was evaluated by SPR measurement (Biacore T200 (GE Healthcare)). The measurement was performed at 25° C., and HBS-EP+ was used as the running buffer. The Fc protein of human IgG1 antibody, as the ligand, was diluted to 30 g/mL in sodium acetate buffer, pH 4.5 (GE Healthcare) and immobilized on the surface of a CM5 Sensor Chip (GE Healthcare) at approximately 1400 RU using the amine coupling method. The peptides were diluted to 100 nM in HBS-EP+ buffer containing 0.1% DMSO. The measurement was performed using the single cycle kinetics method, with an analyte injection time of 120 seconds, a flow rate of 30 L/min, and a dissociation time of 120 seconds. The obtained sensorgrams were fitted based on the affinity to calculate the dissociation constant (KD).

B1: QET-Fc3K-PA48-Z34CM (peptide)
chain: QETRGNCAYHKGQIIWCTYHGGAAPAAPAPAAPAAPAPAAPAAPAPAAPAAPAPAAPAAPAPAAPAAPAPGGFNMQCQRRFYEALHDPNLNEEQRNARIRSIREEC
modifications: C-terminal -NH2 as printed in the 1st table; N-terminal Gln designed to be pyroglutamylated
Kd: 8.48 nM

B2: QET-Z34CM-PA48-Fc3K (peptide)
chain: QETFNMQCQRRFYEALHDPNLNEEQRNARIRSIREECGGAAPAAPAPAAPAAPAPAAPAAPAPAAPAAPAPAAPAAPAPAAPAAPAPGGRGNCAYHKGQIIWCTYH
modifications: C-terminal -NH2 as printed in the 1st table; N-terminal Gln designed to be pyroglutamylated
Kd: 8.98 nM

B3: QET-Z34CM-PA32-Fc3K (peptide)
chain: QETFNMQCQRRFYEALHDPNLNEEQRNARIRSIREECGGAAPAAPAPAAPAAPAPAAPAAPAPAAPAAPAPGGRGNCAYHKGQIIWCTYH
modifications: C-terminal -NH2 as printed in the 1st table; N-terminal Gln designed to be pyroglutamylated
Kd: 7.91 nM

B4: QET-Fc3K-PA32-Z34CM (peptide)
chain: QETRGNCAYHKGQIIWCTYHGGAAPAAPAPAAPAAPAPAAPAAPAPAAPAAPAPGGFNMQCQRRFYEALHDPNLNEEQRNARIRSIREEC
modifications: C-terminal -NH2 as printed in the 1st table; N-terminal Gln designed to be pyroglutamylated
Kd: 12.7 nM
